The values that follow come from patent US20200024348A1 (Alector, published 2020).

B1: S-60-15 [N33 (wt)] huIgG1 LALAPS (antibody, V domains shown)
VH: QVQLQESGPGLVKPSETLSLTCAVSGYSISSGYYWGWIRQPPGKGLEWIGTIYHSGSTYYNPSLKSRVTISVDTSKNQFSLKLSSVTAADTAVYYCARQGSIKQGYYGMDVWGQGTTVTVSS
VL: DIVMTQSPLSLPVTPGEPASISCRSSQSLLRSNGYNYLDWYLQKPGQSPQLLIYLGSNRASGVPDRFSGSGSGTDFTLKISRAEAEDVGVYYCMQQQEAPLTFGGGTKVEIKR
notes: huIgG1 with L234A/L235A/P331S (LALAPS)
B2: S-60-15.9 [N33Y] (antibody, human IgG1, kappa, L234A L235A, V domains shown)
VH: QVQLQESGPGLVKPSETLSLTCAVSGYSISSGYYWGWIRQPPGKGLEWIGTIYHSGSTYYNPSLKSRVTISVDTSKNQFSLKLSSVTAADTAVYYCARQGSIKQGYYGMDVWGQGTTVTVSS
VL: DIVMTQSPLSLPVTPGEPASISCRSSQSLLRSYGYNYLDWYLQKPGQSPQLLIYLGSNRASGVPDRFSGSGSGTDFTLKISRAEAEDVGVYYCMQQQEAPLTFGGGTKVEIKR
notes: huIgG1 LALAPS
B3: S-60-15.13 [N33I] (antibody, human IgG1, kappa, L234A L235A, V domains shown)
VH: QVQLQESGPGLVKPSETLSLTCAVSGYSISSGYYWGWIRQPPGKGLEWIGTIYHSGSTYYNPSLKSRVTISVDTSKNQFSLKLSSVTAADTAVYYCARQGSIKQGYYGMDVWGQGTTVTVSS
VL: DIVMTQSPLSLPVTPGEPASISCRSSQSLLRSIGYNYLDWYLQKPGQSPQLLIYLGSNRASGVPDRFSGSGSGTDFTLKISRAEAEDVGVYYCMQQQEAPLTFGGGTKVEIKR
notes: huIgG1 LALAPS
B4: S-60-15.7 [N33K] (antibody, human IgG1, kappa, L234A L235A, V domains shown)
VH: QVQLQESGPGLVKPSETLSLTCAVSGYSISSGYYWGWIRQPPGKGLEWIGTIYHSGSTYYNPSLKSRVTISVDTSKNQFSLKLSSVTAADTAVYYCARQGSIKQGYYGMDVWGQGTTVTVSS
VL: DIVMTQSPLSLPVTPGEPASISCRSSQSLLRSKGYNYLDWYLQKPGQSPQLLIYLGSNRASGVPDRFSGSGSGTDFTLKISRAEAEDVGVYYCMQQQEAPLTFGGGTKVEIKR
notes: huIgG1 LALAPS
B5: S-60-15.16 [N33M] (antibody, human IgG1, kappa, L234A L235A, V domains shown)
VH: QVQLQESGPGLVKPSETLSLTCAVSGYSISSGYYWGWIRQPPGKGLEWIGTIYHSGSTYYNPSLKSRVTISVDTSKNQFSLKLSSVTAADTAVYYCARQGSIKQGYYGMDVWGQGTTVTVSS
VL: DIVMTQSPLSLPVTPGEPASISCRSSQSLLRSMGYNYLDWYLQKPGQSPQLLIYLGSNRASGVPDRFSGSGSGTDFTLKISRAEAEDVGVYYCMQQQEAPLTFGGGTKVEIKR
notes: huIgG1 LALAPS
B6: S-60-15.3 [N33G] (antibody, human IgG1, kappa, L234A L235A, V domains shown)
VH: QVQLQESGPGLVKPSETLSLTCAVSGYSISSGYYWGWIRQPPGKGLEWIGTIYHSGSTYYNPSLKSRVTISVDTSKNQFSLKLSSVTAADTAVYYCARQGSIKQGYYGMDVWGQGTTVTVSS
VL: DIVMTQSPLSLPVTPGEPASISCRSSQSLLRSGGYNYLDWYLQKPGQSPQLLIYLGSNRASGVPDRFSGSGSGTDFTLKISRAEAEDVGVYYCMQQQEAPLTFGGGTKVEIKR
notes: huIgG1 LALAPS
B7: S-60-15.2 [N33S] (antibody, human IgG1, kappa, L234A L235A, V domains shown)
VH: QVQLQESGPGLVKPSETLSLTCAVSGYSISSGYYWGWIRQPPGKGLEWIGTIYHSGSTYYNPSLKSRVTISVDTSKNQFSLKLSSVTAADTAVYYCARQGSIKQGYYGMDVWGQGTTVTVSS
VL: DIVMTQSPLSLPVTPGEPASISCRSSQSLLRSSGYNYLDWYLQKPGQSPQLLIYLGSNRASGVPDRFSGSGSGTDFTLKISRAEAEDVGVYYCMQQQEAPLTFGGGTKVEIKR
notes: huIgG1 LALAPS
B8: S-60-15.11 [N33W] (antibody, human IgG1, kappa, L234A L235A, V domains shown)
VH: QVQLQESGPGLVKPSETLSLTCAVSGYSISSGYYWGWIRQPPGKGLEWIGTIYHSGSTYYNPSLKSRVTISVDTSKNQFSLKLSSVTAADTAVYYCARQGSIKQGYYGMDVWGQGTTVTVSS
VL: DIVMTQSPLSLPVTPGEPASISCRSSQSLLRSWGYNYLDWYLQKPGQSPQLLIYLGSNRASGVPDRFSGSGSGTDFTLKISRAEAEDVGVYYCMQQQEAPLTFGGGTKVEIKR
notes: huIgG1 LALAPS
B9: S-60-15.14 [N33V] (antibody, human IgG1, kappa, L234A L235A, V domains shown)
VH: QVQLQESGPGLVKPSETLSLTCAVSGYSISSGYYWGWIRQPPGKGLEWIGTIYHSGSTYYNPSLKSRVTISVDTSKNQFSLKLSSVTAADTAVYYCARQGSIKQGYYGMDVWGQGTTVTVSS
VL: DIVMTQSPLSLPVTPGEPASISCRSSQSLLRSVGYNYLDWYLQKPGQSPQLLIYLGSNRASGVPDRFSGSGSGTDFTLKISRAEAEDVGVYYCMQQQEAPLTFGGGTKVEIKR
notes: huIgG1 LALAPS
B10: S-60-15.6 [N33H] (antibody, human IgG1, kappa, L234A L235A, V domains shown)
VH: QVQLQESGPGLVKPSETLSLTCAVSGYSISSGYYWGWIRQPPGKGLEWIGTIYHSGSTYYNPSLKSRVTISVDTSKNQFSLKLSSVTAADTAVYYCARQGSIKQGYYGMDVWGQGTTVTVSS
VL: DIVMTQSPLSLPVTPGEPASISCRSSQSLLRSHGYNYLDWYLQKPGQSPQLLIYLGSNRASGVPDRFSGSGSGTDFTLKISRAEAEDVGVYYCMQQQEAPLTFGGGTKVEIKR
notes: huIgG1 LALAPS
B11: S-60-15.10 [N33E] (antibody, human IgG1, kappa, L234A L235A, V domains shown)
VH: QVQLQESGPGLVKPSETLSLTCAVSGYSISSGYYWGWIRQPPGKGLEWIGTIYHSGSTYYNPSLKSRVTISVDTSKNQFSLKLSSVTAADTAVYYCARQGSIKQGYYGMDVWGQGTTVTVSS
VL: DIVMTQSPLSLPVTPGEPASISCRSSQSLLRSEGYNYLDWYLQKPGQSPQLLIYLGSNRASGVPDRFSGSGSGTDFTLKISRAEAEDVGVYYCMQQQEAPLTFGGGTKVEIKR
notes: huIgG1 LALAPS
B12: S-60-15.12 [N33F] (antibody, human IgG1, kappa, L234A L235A, V domains shown)
VH: QVQLQESGPGLVKPSETLSLTCAVSGYSISSGYYWGWIRQPPGKGLEWIGTIYHSGSTYYNPSLKSRVTISVDTSKNQFSLKLSSVTAADTAVYYCARQGSIKQGYYGMDVWGQGTTVTVSS
VL: DIVMTQSPLSLPVTPGEPASISCRSSQSLLRSFGYNYLDWYLQKPGQSPQLLIYLGSNRASGVPDRFSGSGSGTDFTLKISRAEAEDVGVYYCMQQQEAPLTFGGGTKVEIKR
notes: huIgG1 LALAPS
B13: S-60-15.8 [N33Q] (antibody, human IgG1, kappa, L234A L235A, V domains shown)
VH: QVQLQESGPGLVKPSETLSLTCAVSGYSISSGYYWGWIRQPPGKGLEWIGTIYHSGSTYYNPSLKSRVTISVDTSKNQFSLKLSSVTAADTAVYYCARQGSIKQGYYGMDVWGQGTTVTVSS
VL: DIVMTQSPLSLPVTPGEPASISCRSSQSLLRSQGYNYLDWYLQKPGQSPQLLIYLGSNRASGVPDRFSGSGSGTDFTLKISRAEAEDVGVYYCMQQQEAPLTFGGGTKVEIKR
notes: huIgG1 LALAPS
B14: S-60-15.15 [N33A] (antibody, human IgG1, kappa, L234A L235A, V domains shown)
VH: QVQLQESGPGLVKPSETLSLTCAVSGYSISSGYYWGWIRQPPGKGLEWIGTIYHSGSTYYNPSLKSRVTISVDTSKNQFSLKLSSVTAADTAVYYCARQGSIKQGYYGMDVWGQGTTVTVSS
VL: DIVMTQSPLSLPVTPGEPASISCRSSQSLLRSAGYNYLDWYLQKPGQSPQLLIYLGSNRASGVPDRFSGSGSGTDFTLKISRAEAEDVGVYYCMQQQEAPLTFGGGTKVEIKR
notes: huIgG1 LALAPS
B15: S-60-15.4 [N33R] (antibody, human IgG1, kappa, L234A L235A, V domains shown)
VH: QVQLQESGPGLVKPSETLSLTCAVSGYSISSGYYWGWIRQPPGKGLEWIGTIYHSGSTYYNPSLKSRVTISVDTSKNQFSLKLSSVTAADTAVYYCARQGSIKQGYYGMDVWGQGTTVTVSS
VL: DIVMTQSPLSLPVTPGEPASISCRSSQSLLRSRGYNYLDWYLQKPGQSPQLLIYLGSNRASGVPDRFSGSGSGTDFTLKISRAEAEDVGVYYCMQQQEAPLTFGGGTKVEIKR
notes: huIgG1 LALAPS

In the assay the target is T1, histidine-tagged human SORT1 (R&D Systems) (human, UniProt Q99523 78-755).
T1 construct: Bought recombinant protein; also called His-tagged human SORT1; not shown: histidine tag
T1 sequence: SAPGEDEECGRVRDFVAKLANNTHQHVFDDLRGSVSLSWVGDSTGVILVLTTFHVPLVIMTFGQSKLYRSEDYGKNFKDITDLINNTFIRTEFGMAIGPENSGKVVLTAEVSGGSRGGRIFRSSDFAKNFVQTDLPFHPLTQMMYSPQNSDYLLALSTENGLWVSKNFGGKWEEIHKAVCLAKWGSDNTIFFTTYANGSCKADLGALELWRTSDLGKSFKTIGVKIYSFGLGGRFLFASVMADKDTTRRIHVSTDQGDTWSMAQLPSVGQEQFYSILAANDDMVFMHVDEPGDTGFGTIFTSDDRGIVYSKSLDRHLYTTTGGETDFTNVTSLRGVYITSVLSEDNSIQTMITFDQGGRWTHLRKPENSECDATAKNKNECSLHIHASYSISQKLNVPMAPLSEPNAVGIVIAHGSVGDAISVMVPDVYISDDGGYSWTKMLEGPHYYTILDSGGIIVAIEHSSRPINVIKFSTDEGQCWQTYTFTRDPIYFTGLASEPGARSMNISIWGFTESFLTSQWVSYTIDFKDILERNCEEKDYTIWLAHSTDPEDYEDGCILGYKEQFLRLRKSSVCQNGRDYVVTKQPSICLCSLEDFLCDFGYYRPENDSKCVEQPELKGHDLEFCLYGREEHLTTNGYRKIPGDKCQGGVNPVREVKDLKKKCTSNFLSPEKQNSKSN
Kind of assay: BLI (Octet RED96), antibody captured on anti-human IgG Fc sensor, 20 nM His-tagged human SORT1, 1:1 fit. As to the method:
The G1m3 or G1m(f) allotype with L234A/L235A/P331S (“LALAPS” motif) mutations was used as a background (Jefferis R and Lefranc M-P, Mabs, 2009 July-August; 1(4): 332-338). […] Bio-layer interferometry (BLI) data was collected at a rate of 5 Hz at 25° C. on a Pall ForteBio Octet RED96 instrument. Data analysis was performed using ForteBio Data Analysis Software, version 9.0. Standard kinetic buffer (PBS, 0.1 BSA, 0.02 Tween-20, pH 7.2) was used for the assay and for preparing reagents. For all assays, sensor tips were equilibrated in buffer prior to analysis.
Twenty nM histidine-tagged human SORT1 (R&D Systems, Minneapolis, Minn.) was then bound to the captured anti-SORT1 surface (200 s association time, 1200 s dissociation time). […] Full, local fitting using a 1:1 interaction model was applied to extract association and dissociation rate constants (kₐ and kd, respectively) for each N33 mutant. Affinity constants (KD) were calculated from the ratio […]. Different amino acid substitutions were made at N33 and tested for binding to SORT1 in an off-rate screen (under non-stress conditions) as shown in Table 9.
A general note: BLI is a label-free optical method that tracks binding on a fibre tip over time.
In general, Kd refers to the concentration at which binding is half-saturated. Lower therefore signals a tighter complex. B1 had a Kd of 0.27 nM.

The koff is the rate constant with which the complex falls apart. A low value points to slow dissociation. By kon is commonly meant the rate constant with which the complex forms. A high value points to faster complex formation. Regarding B2, binding was characterised by a dissociation constant (Kd) of 1.28 nM, the koff was determined as 0.000675 s⁻¹ and the kon stood at 511000 M⁻¹ s⁻¹.

For the molecule B3, the Kd worked out at 0.46 nM, the koff amounted to 0.000228 s⁻¹ and the kon came to 491000 M⁻¹ s⁻¹.

For B4, the Kd was 0.965 nM, the koff came to 0.000547 s⁻¹ and the kon amounted to 563000 M⁻¹ s⁻¹.

As for B5, binding was characterised by a dissociation constant (Kd) of 0.85 nM, the koff turned out to be 0.000423 s⁻¹ and the on-rate constant (kon) is 495000 M⁻¹ s⁻¹.

With B6, the affinity, expressed as Kd, was 0.825 nM; the koff came out at 0.000411 s⁻¹; the kon turned out to be 498000 M⁻¹ s⁻¹.

Consider B7, for which binding was put at a Kd of 0.44 nM, the koff came out at 0.000247 s⁻¹ and the kon is 563000 M⁻¹ s⁻¹.

B8 gave a Kd of 0.96 nM, a koff of 0.000579 s⁻¹ and a kon of 601000 M⁻¹ s⁻¹.

B9: the Kd was 0.69 nM, the koff stood at 0.000306 s⁻¹ and the kon was found to be 445000 M⁻¹ s⁻¹.

B10 yielded a Kd of 0.823 nM, a koff of 0.00046 s⁻¹ and a kon of 548000 M⁻¹ s⁻¹.

The molecule B11 showed a Kd of 2.01 nM, a koff of approximately 0.00136 s⁻¹ and a kon of 676000 M⁻¹ s⁻¹.

The molecule B12 displayed a Kd of 2.91 nM, a koff of 0.000816 s⁻¹ and a kon of 280000 M⁻¹ s⁻¹.

B13 registered a Kd of 0.905 nM, a koff of 0.000653 s⁻¹ and a kon of 609000 M⁻¹ s⁻¹.

Take B14: the affinity, expressed as Kd, was 0.625 nM; the koff is 0.000315 s⁻¹; the kon was determined as 493000 M⁻¹ s⁻¹.

In turn, B15 showed a Kd of 0.88 nM, a koff of 0.00046 s⁻¹ and a kon of 524000 M⁻¹ s⁻¹.
